Reference: patent US20210324028A1 (Pfizer, published 2021)
Like-named read-outs stand apart in the source and are kept apart here. Each block holds one binder with its values, some of them ahead of it.

What was measured:
[1] = target: T1, mouse PD-1 on doxycycline-induced 32D[pRF770+pRF791] cells (mouse, UniProt Q02242 25-288); assay: cell-based or functional assay
T1 sequence (looked up): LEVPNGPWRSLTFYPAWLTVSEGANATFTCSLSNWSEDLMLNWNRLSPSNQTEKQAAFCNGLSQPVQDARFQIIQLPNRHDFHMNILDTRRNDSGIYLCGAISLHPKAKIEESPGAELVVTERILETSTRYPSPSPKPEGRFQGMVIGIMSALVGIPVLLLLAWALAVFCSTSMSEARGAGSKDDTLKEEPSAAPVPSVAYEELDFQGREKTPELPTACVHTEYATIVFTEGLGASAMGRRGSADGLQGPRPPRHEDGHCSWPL

[2] = target: T2, IL-15 signaling receptor on 32D[pRF770+pRF791] cells (human CD122 plus mouse CD132) (human; mouse, UniProt P14784 27-551; P34902 23-369); assay: cell-based or functional assay
T2 sequence (looked up) 1: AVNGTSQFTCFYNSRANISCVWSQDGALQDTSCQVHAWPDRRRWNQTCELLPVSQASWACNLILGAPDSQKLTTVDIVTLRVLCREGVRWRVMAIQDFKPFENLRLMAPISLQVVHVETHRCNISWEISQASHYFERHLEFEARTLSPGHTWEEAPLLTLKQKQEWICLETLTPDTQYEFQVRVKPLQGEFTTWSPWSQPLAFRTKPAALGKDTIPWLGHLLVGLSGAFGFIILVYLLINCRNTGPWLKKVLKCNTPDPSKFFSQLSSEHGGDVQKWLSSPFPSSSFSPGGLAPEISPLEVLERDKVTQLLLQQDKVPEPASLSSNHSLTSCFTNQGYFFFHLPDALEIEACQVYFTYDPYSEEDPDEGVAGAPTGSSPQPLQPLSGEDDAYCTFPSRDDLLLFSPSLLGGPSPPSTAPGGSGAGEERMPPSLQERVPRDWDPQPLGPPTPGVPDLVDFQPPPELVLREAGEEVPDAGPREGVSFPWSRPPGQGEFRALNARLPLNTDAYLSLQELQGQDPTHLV
T2 sequence (looked up) 2: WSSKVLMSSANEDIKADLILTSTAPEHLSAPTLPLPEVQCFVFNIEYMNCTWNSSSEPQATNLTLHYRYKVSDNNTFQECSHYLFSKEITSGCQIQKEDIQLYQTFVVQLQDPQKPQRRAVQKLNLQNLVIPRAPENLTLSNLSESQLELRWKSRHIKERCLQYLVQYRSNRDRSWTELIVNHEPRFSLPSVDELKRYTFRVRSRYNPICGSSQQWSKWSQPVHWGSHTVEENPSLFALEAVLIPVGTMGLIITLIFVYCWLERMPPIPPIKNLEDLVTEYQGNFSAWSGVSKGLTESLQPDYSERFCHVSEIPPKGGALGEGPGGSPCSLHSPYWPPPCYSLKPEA

[3] = target: T3, human IL-2Rβ (human, UniProt P14784 27-240, limits assumed); assay: SPR, steady state, fusion captured
T3 construct: also called hIL-2Rβ; IL-2 receptor beta
T3 sequence (looked up): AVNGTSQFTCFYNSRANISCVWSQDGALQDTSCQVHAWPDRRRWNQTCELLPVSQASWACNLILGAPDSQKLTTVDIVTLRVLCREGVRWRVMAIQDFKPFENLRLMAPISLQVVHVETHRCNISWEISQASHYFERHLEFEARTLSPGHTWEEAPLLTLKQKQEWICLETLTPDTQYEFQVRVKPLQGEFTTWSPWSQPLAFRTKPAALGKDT
Outline: (§1)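 Anti-PD-1–hIL-15 fusions captured at 10 μg/mL on an anti-human Fc surface, receptor injected at 37 °C in HEPES-buffered saline with 0.05% Tween-20 and 1 mg/mL BSA, pH 7.4; 5 min dissociation.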

[4] = target: T1, mouse PD-1 on doxycycline-induced …; assay: flow cytometry, Alexa647-labelled protein on doxycycline-induced 32D[pRF770+pRF791] cells (mouse PD-1 together with CD122 plus CD132), 4 C 30 min, % A647-positive cells
Method: (§2) The following cell lines were suspended in growth medium to 0.7*10\hat{ }6 cells/mL and, cultured for 16 hrs: 1) untransduced 32D (parental line); 2) 32D[pRF770+pRF791]; and 3) 32D[pRF770+pRF791] grown in the presence of 1 ug/mL doxycycline, to induce PD-1 expression. Cultures were then resuspended to a final concentration of 1.0*10\hat{ }6 cells/mL, and 0.1 mL of each suspension was plated into separate wells of a 96-well round-bottom plate, of sufficient number required for the experiment. Each Alexa647-labeled antibody or antibody-cytokine chimeric proteins were then added to a unique well to obtain a final concentration of 500 nM, 100 nM, […], 1 nM, 0.1 nM, 0.01 nM, or 0.001 nM in a given well. Plates were incubated at 4° C. for 30′, and then the cells were pelleted by centrifugation (300×g, 5′) and resuspended in 0.2 mL of PBS. This wash step was repeated twice. Upon final resuspension, the cells were analyzed on an LSRII flow cytometer. Data were analyzed using FlowJo version 10.

[5] = target: T4, human IL-15Rα (human, UniProt Q13261 31-205, limits assumed); assay: SPR 37C, fusion captured by anti-human Fc
T4 construct: also called hIL-15Rα; IL-15 receptor alpha
T4 sequence (Q13261 31-205 limits assumed): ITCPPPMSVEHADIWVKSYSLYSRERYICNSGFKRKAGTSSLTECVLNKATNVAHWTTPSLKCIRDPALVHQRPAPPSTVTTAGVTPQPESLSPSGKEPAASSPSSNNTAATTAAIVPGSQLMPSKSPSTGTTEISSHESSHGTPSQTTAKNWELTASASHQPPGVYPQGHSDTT
Outline: as §1

[6] = target: T1, mouse PD-1 on doxycycline-induced …; assay: cell-based or functional assay; remark: listed apart in the source
[7] = target: T2, IL-15 signaling receptor on …; assay: cell-based or functional assay; remark: listed apart in the source
[8] = target: T1, mouse PD-1 on doxycycline-induced …; assay: cell-based or functional assay; remark: listed apart in the source
[9] = target: T2, IL-15 signaling receptor on …; assay: cell-based or functional assay; remark: listed apart in the source
[10] = target: T1, mouse PD-1 on doxycycline-induced …; assay: cell-based or functional assay; remark: listed apart in the source
[11] = target: T2, IL-15 signaling receptor on …; assay: cell-based or functional assay; remark: listed apart in the source
[12] = target: T3, human IL-2Rβ; assay: SPR, fusion captured
Outline: as §1

[13] = target: T2, IL-15 signaling receptor on …; assay: flow cytometry, Alexa647-labelled protein on uninduced 32D[pRF770+pRF791] cells (human CD122 plus mouse CD132), 4 C 30 min, % A647-positive cells
Method: as §2

[14] = target: T1, mouse PD-1 on doxycycline-induced …; assay: flow cytometry, Alexa647-labelled protein on doxycycline-induced 32D[pRF770+pRF791] cells, 4 C 30 min, % A647-positive cells
Method: as §2

Fold change = EC50 (PD-1(low))/EC50 (PD-1+) [1]: 223 fold | pSTAT5 EC50 on PD-1+ 32D reporter cells [1]: 90 pM | pSTAT5 EC50 on PD-1(low) 32D reporter cells [2]: 21.1 nM | Kd [3]: 518 nM | EC50 (read off the curve) [4]: ~0.03 nM | binding result [5]: no binding (tested: 3000 nM) | Fold change = EC50 (PD-1(low))/EC50 (PD-1+) [6]: 1230 fold | pSTAT5 EC50 on PD-1+ 32D reporter cells [6]: 10.9 pM | pSTAT5 EC50 on PD-1(low) 32D reporter cells [7]: 13.3 nM | Fold change = EC50 (PD-1(low))/EC50 (PD-1+) [8]: 300 fold | pSTAT5 EC50 on PD-1+ 32D reporter cells [8]: 5.74 pM | pSTAT5 EC50 on PD-1(low) 32D reporter cells [9]: 1.72 nM | Fold change = EC50 (PD-1(low))/EC50 (PD-1+) [10]: 241 fold | pSTAT5 EC50 on PD-1+ 32D reporter cells [10]: 30.3 pM | pSTAT5 EC50 on PD-1(low) 32D reporter cells [11]: 7.29 nM
B1: xmPD-1-hIL15 NQ mutant (other)
heavy 1: HHHHHHHHGGGGSGSGGEVQLVESGGGLVKPGGSLELSCAASGFTFSSYWMSWVRQAPEKGLEWVAAISPSGGSTYYADSVKGRFTISRDNAKNTLFLQMTSLRSEDTAMYYCAKESWGAYYDLWGQGTTVTVSSASTKGPSVFPLAPCSRSTSESTAALGCLVKDYFPEPVTVSWNSGALTSGVHTFPAVLQSSGLYSLSSVVTVPSSNFGTQTYTCNVDHKPSNTKVDKTVERKCRVRCPRCPAPPVAGPSVFLFPPKPKDTLMISRTPEVTCVVVAVSHEDPEVQFNWYVDGVEVHNAKTKPREEQFNSTFRVVSVLTVVHQDWLNGKEYKCKVSNKGLPSSIEKTISKTKGQPREPQVYTLPPSREEMTKNQVSLTCLVKGFYPSDIAVEWESNGQPENNYKTTPPMLDSDGSFFLYSRLTVDKSRWQQGNVFSCSVMHEALHNHYTQKSLSLSPGK
heavy 2: EVQLVESGGGLVKPGGSLELSCAASGFTFSSYWMSWVRQAPEKGLEWVAAISPSGGSTYYADSVKGRFTISRDNAKNTLFLQMTSLRSEDTAMYYCAKESWGAYYDLWGQGTTVTVSSASTKGPSVFPLAPCSRSTSESTAALGCLVKDYFPEPVTVSWNSGALTSGVHTFPAVLQSSGLYSLSSVVTVPSSNFGTQTYTCNVDHKPSNTKVDKTVERKCEVECPECPAPPVAGPSVFLFPPKPKDTLMISRTPEVTCVVVAVSHEDPEVQFNWYVDGVEVHNAKTKPREEQFNSTFRVVSVLTVVHQDWLNGKEYKCKVSNKGLPSSIEKTISKTKGQPREPQVYTLPPSREEMTKNQVSLTCEVKGFYPSDIAVEWESNGQPENNYKTTPPMLDSDGSFFLYSKLTVDKSRWQQGNVFSCSVMHEALHNHYTQKSLSLSPGSGGGGGTATATPGANWVNVISDLKKIEDLIQSMHINATLFTESDVHPSCKVTAMKCFLLQLQVISLQSGDASIHDTVENLIILANNSLSSNGNVTESGCKECQELEQKNIKEFLQSFVHIVQMFINT
light: DIVMTQSPSSLSVSAGDKVTMSCRASQGISSWLAWYQQKPWQPPKLLIYKASTLESGVPDRFTGSGSGTDFTLTISSVQAEDLAVYYCQQSYSTPWTFGGGTKLEIKGTVAAPSVFIFPPSDEQLKSGTASVVCLLNNFYPREAKVQWKVDNALQSGNSQESVTEQDSKDSTYSLSSTLTLSKADYEKHKVYACEVTHQGLSSPVTKSFNRGEC
notes: also called xmPD-1-IL15 NQ; xmPD1-IL15 NQ

binding result [5]: no binding (tested: 3000 nM) | Kd [12]: > 1500 nM | Fold change = EC50 (PD-1(low))/EC50 (PD-1+) [10]: 382 fold | pSTAT5 EC50 on PD-1+ 32D reporter cells [10]: 56.1 pM | pSTAT5 EC50 on PD-1(low) 32D reporter cells [11]: 21.4 nM
B2: xmPD-1-hIL15 V49R/Y26K/E64Q/D30N (other)
heavy 1: B1 heavy 1
heavy 2: EVQLVESGGGLVKPGGSLELSCAASGFTFSSYWMSWVRQAPEKGLEWVAAISPSGGSTYYADSVKGRFTISRDNAKNTLFLQMTSLRSEDTAMYYCAKESWGAYYDLWGQGTTVTVSSASTKGPSVFPLAPCSRSTSESTAALGCLVKDYFPEPVTVSWNSGALTSGVHTFPAVLQSSGLYSLSSVVTVPSSNFGTQTYTCNVDHKPSNTKVDKTVERKCEVECPECPAPPVAGPSVFLFPPKPKDTLMISRTPEVTCVVVAVSHEDPEVQFNWYVDGVEVHNAKTKPREEQFNSTFRVVSVLTVVHQDWLNGKEYKCKVSNKGLPSSIEKTISKTKGQPREPQVYTLPPSREEMTKNQVSLTCEVKGFYPSDIAVEWESNGQPENNYKTTPPMLDSDGSFFLYSKLTVDKSRWQQGNVFSCSVMHEALHNHYTQKSLSLSPGSGGGGGTSATATPGANWVNVISDLKKIEDLIQSMHIDATLKTESNVHPSCKVTAMKCFLLELQRISLESGDASIHDTVQNLIILANNSLSSNGNVTESGCKECEELEEKNIKEFLQSFVHIVQMFINT
light: B1 light
notes: not restated for this mutant; also called xmPD1 -V49R/Y26K/E64Q/D30N

binding result [13]: no binding (tested: 500 nM) | EC50 (read off the curve) [14]: ~0.03 nM
B3: xmPD-1 (antibody, human IgG2, kappa, V domains shown)
VH: EVQLVESGGGLVKPGGSLELSCAASGFTFSSYWMSWVRQAPEKGLEWVAAISPSGGSTYYADSVKGRFTISRDNAKNTLFLQMTSLRSEDTAMYYCAKESWGAYYDLWGQGTTVTVSS
VL: DIVMTQSPSSLSVSAGDKVTMSCRASQGISSWLAWYQQKPWQPPKLLIYKASTLESGVPDRFTGSGSGTDFTLTISSVQAEDLAVYYCQQSYSTPWTFGGGTKLEIKG
notes: human IgG2dA constant regions; also called anti-mouse PD-1 antibody; clone F12.3
